Experimental data from US20220089698A1 (published 2022).

Legend:
HIV gp120 CAAN = HIV gp120 CAAN (HIV); experiment: single-point ELISA; further: test concentration or dose not given here
HIV gp120 Bal = HIV gp120 Bal (HIV); experiment: single-point ELISA; further: test concentration or dose not given here

Row | Binder | ELISA (A450) (HIV gp120 CAAN) | ELISA (A450) (HIV gp120 Bal)
1 | 1.1.32-1 (antibody, human IgG1, kappa) heavy: QVQLLQSGAAVTKPGASVRVSCEASGYNIRDYFIHWWRQAPGQGLQWVGWINPKTGQPNNPRQFQGRVSLTRHASWDFDTFSFYMDLKALRSDDTAVYFCARQRSDYWDFDVWGSGTQVTVSSASTKGPSVFPLAPSSKSTSGGTAALGCLVKDYFPEPVTVSWNSGALTSGVHTFPAVLQSSGLYSLSSVVTVPSSSLGTQTYICNVNHKPSNTKVDKKVEPKSCDKTHTCPPCPAPELLAGPDVFLFPPKPKDTLMISRTPEVTCVVVDVSHEDPEVKFNWYVDGVEVHNAKTKPREEQYNSTYRVVSVLTVLHQDWLNGKEYKCKVSNKALPLPEEKTISKAKGQPREPQVYTLPPSREEMTKNQVSLTCLVKGFYPSDIAVEWESNGQPENNYKTTPPVLDSDGSFFLYSKLTVDKSRWQQGNVFSCSVLHEALHSHYTQKSLSLSPGK light: DIQMTQSPSSLSASVGDTVTITCQANGYLNWYQQRRGKAPKLLIYDGSKLERGVPSRFSGRRWGQEYTLTISSLQPEDIATYFCQVYEFVTPGTRLDLKRTVAAPSVFIFPPSDEQLKSGTASVVCLLNNFYPREAKVQWKVDNALQSGNSQESVTEQDSKDSTYSLSSTLTLSKADYEKHKVYACEVTHQGLSSPVTKSFNRGEC | 1.04 | 0.93
2 | 1.36.32-1 (antibody, human IgG1, kappa) heavy: QVQLVQSGAEVKKPGASVRVSCKASGYNIRDYFMHWWRQAPGQGLQWVGWINPKTGQPNNPRQFQGRVTMTRHASWDFDTFSAYMDLSRLRSDDTATYFCARQRTDYWDFDVWGQGTMVTVSSASTKGPSVFPLAPSSKSTSGGTAALGCLVKDYFPEPVTVSWNSGALTSGVHTFPAVLQSSGLYSLSSVVTVPSSSLGTQTYICNVNHKPSNTKVDKKVEPKSCDKTHTCPPCPAPELLAGPDVFLFPPKPKDTLMISRTPEVTCVVVDVSHEDPEVKFNWYVDGVEVHNAKTKPREEQYNSTYRVVSVLTVLHQDWLNGKEYKCKVSNKALPLPEEKTISKAKGQPREPQVYTLPPSREEMTKNQVSLTCLVKGFYPSDIAVEWESNGQPENNYKTTPPVLDSDGSFFLYSKLTVDKSRWQQGNVFSCSVLHEALHSHYTQKSLSLSPGK light: DIQMTQSPSSLSASVGDTVTITCQANGYLNWYQQRRGKAPKLLIYDGSKLERGVPSRFSGRRWGQEYTLTISSLQPEDIATYFCQVYEFVTPGTRLDLKRTVAAPSVFIFPPSDEQLKSGTASVVCLLNNFYPREAKVQWKVDNALQSGNSQESVTEQDSKDSTYSLSSTLTLSKADYEKHKVYACEVTHQGLSSPVTKSFNRGEC | 0.5 | 0.96
3 | 1.34.32-1 (antibody, human IgG1, kappa) heavy: QVQLVQSGAEVKKPGASVRVSCKASGYNIRDYFIHWWRQAPGQGLQWVGWINPKTGQPNNPRQFQGRVTLTRHASWDFDTFSFYMDLKALRSDDTAVYFCARQRTDYWDFDVWGSGTQVTVSSASTKGPSVFPLAPSSKSTSGGTAALGCLVKDYFPEPVTVSWNSGALTSGVHTFPAVLQSSGLYSLSSVVTVPSSSLGTQTYICNVNHKPSNTKVDKKVEPKSCDKTHTCPPCPAPELLAGPDVFLFPPKPKDTLMISRTPEVTCVVVDVSHEDPEVKFNWYVDGVEVHNAKTKPREEQYNSTYRVVSVLTVLHQDWLNGKEYKCKVSNKALPLPEEKTISKAKGQPREPQVYTLPPSREEMTKNQVSLTCLVKGFYPSDIAVEWESNGQPENNYKTTPPVLDSDGSFFLYSKLTVDKSRWQQGNVFSCSVLHEALHSHYTQKSLSLSPGK light: DIQMTQSPSSLSASVGDTVTITCQANGYLNWYQQRRGKAPKLLIYDGSKLERGVPSRFSGRRWGQEYTLTISSLQPEDIATYFCQVYEFVTPGTRLDLKRTVAAPSVFIFPPSDEQLKSGTASVVCLLNNFYPREAKVQWKVDNALQSGNSQESVTEQDSKDSTYSLSSTLTLSKADYEKHKVYACEVTHQGLSSPVTKSFNRGEC | 0.97 | 0.93
4 | 1.1.33-1 (antibody, human IgG1, kappa) heavy: QVQLLQSGAAVTKPGASVRVSCEASGYNIRDYFIHWWRQAPGQGLQWVGWINPKTGQPNNPRQFQGRVSLTRHASWDFDTFSFYMDLKALRSDDTAVYFCARQRSDYWDFDVWGSGTQVTVSSASTKGPSVFPLAPSSKSTSGGTAALGCLVKDYFPEPVTVSWNSGALTSGVHTFPAVLQSSGLYSLSSVVTVPSSSLGTQTYICNVNHKPSNTKVDKKVEPKSCDKTHTCPPCPAPELLAGPDVFLFPPKPKDTLMISRTPEVTCVVVDVSHEDPEVKFNWYVDGVEVHNAKTKPREEQYNSTYRVVSVLTVLHQDWLNGKEYKCKVSNKALPLPEEKTISKAKGQPREPQVYTLPPSREEMTKNQVSLTCLVKGFYPSDIAVEWESNGQPENNYKTTPPVLDSDGSFFLYSKLTVDKSRWQQGNVFSCSVLHEALHSHYTQKSLSLSPGK light: DIQMTQSPSSLSASVGDTVTITCQANGYLNWYQQRRGKAPKLLIYDGSNLERGVPSRFSGRRWGQEYTLTISSLQPEDIATYFCQVYEFVVPGTNLDIKRTVAAPSVFIFPPSDEQLKSGTASVVCLLNNFYPREAKVQWKVDNALQSGNSQESVTEQDSKDSTYSLSSTLTLSKADYEKHKVYACEVTHQGLSSPVTKSFNRGEC | 0.94 | 0.87
5 | 1.31.33-1 (antibody, human IgG1, kappa) heavy: QVQLVQSGAEVTKPGASVRVSCEASGYNIRDYFIHWWRQAPGQGLQWVGWINPKTGQPNNPRQFQGRVSLTRHASWDFDTFSFYMDLKALRSDDTATYFCARQRSDYWDFDVWGSGTQVTVSSASTKGPSVFPLAPSSKSTSGGTAALGCLVKDYFPEPVTVSWNSGALTSGVHTFPAVLQSSGLYSLSSVVTVPSSSLGTQTYICNVNHKPSNTKVDKKVEPKSCDKTHTCPPCPAPELLAGPDVFLFPPKPKDTLMISRTPEVTCVVVDVSHEDPEVKFNWYVDGVEVHNAKTKPREEQYNSTYRVVSVLTVLHQDWLNGKEYKCKVSNKALPLPEEKTISKAKGQPREPQVYTLPPSREEMTKNQVSLTCLVKGFYPSDIAVEWESNGQPENNYKTTPPVLDSDGSFFLYSKLTVDKSRWQQGNVFSCSVLHEALHSHYTQKSLSLSPGK light: DIQMTQSPSSLSASVGDTVTITCQANGYLNWYQQRRGKAPKLLIYDGSNLERGVPSRFSGRRWGQEYTLTISSLQPEDIATYFCQVYEFVVPGTNLDIKRTVAAPSVFIFPPSDEQLKSGTASVVCLLNNFYPREAKVQWKVDNALQSGNSQESVTEQDSKDSTYSLSSTLTLSKADYEKHKVYACEVTHQGLSSPVTKSFNRGEC | 0.86 | 0.89
6 | 1.32.32-1 (antibody, human IgG1, kappa) heavy: QVQLVQSGAEVTKPGASVRVSCEASGYNIRDYFIHWWRQAPGQGLQWVGWINPKTGQPNNPRQFQGRVSLTRHASWDFDTFSFYMDLKALRSDDTAVYFCARQRTDYWDFDVWGSGTQVTVSSASTKGPSVFPLAPSSKSTSGGTAALGCLVKDYFPEPVTVSWNSGALTSGVHTFPAVLQSSGLYSLSSVVTVPSSSLGTQTYICNVNHKPSNTKVDKKVEPKSCDKTHTCPPCPAPELLAGPDVFLFPPKPKDTLMISRTPEVTCVVVDVSHEDPEVKFNWYVDGVEVHNAKTKPREEQYNSTYRVVSVLTVLHQDWLNGKEYKCKVSNKALPLPEEKTISKAKGQPREPQVYTLPPSREEMTKNQVSLTCLVKGFYPSDIAVEWESNGQPENNYKTTPPVLDSDGSFFLYSKLTVDKSRWQQGNVFSCSVLHEALHSHYTQKSLSLSPGK light: DIQMTQSPSSLSASVGDTVTITCQANGYLNWYQQRRGKAPKLLIYDGSKLERGVPSRFSGRRWGQEYTLTISSLQPEDIATYFCQVYEFVTPGTRLDLKRTVAAPSVFIFPPSDEQLKSGTASVVCLLNNFYPREAKVQWKVDNALQSGNSQESVTEQDSKDSTYSLSSTLTLSKADYEKHKVYACEVTHQGLSSPVTKSFNRGEC | 0.9 | 0.89
7 | 1.31.32-1 (antibody, human IgG1, kappa) heavy: QVQLVQSGAEVTKPGASVRVSCEASGYNIRDYFIHWWRQAPGQGLQWVGWINPKTGQPNNPRQFQGRVSLTRHASWDFDTFSFYMDLKALRSDDTATYFCARQRSDYWDFDVWGSGTQVTVSSASTKGPSVFPLAPSSKSTSGGTAALGCLVKDYFPEPVTVSWNSGALTSGVHTFPAVLQSSGLYSLSSVVTVPSSSLGTQTYICNVNHKPSNTKVDKKVEPKSCDKTHTCPPCPAPELLAGPDVFLFPPKPKDTLMISRTPEVTCVVVDVSHEDPEVKFNWYVDGVEVHNAKTKPREEQYNSTYRVVSVLTVLHQDWLNGKEYKCKVSNKALPLPEEKTISKAKGQPREPQVYTLPPSREEMTKNQVSLTCLVKGFYPSDIAVEWESNGQPENNYKTTPPVLDSDGSFFLYSKLTVDKSRWQQGNVFSCSVLHEALHSHYTQKSLSLSPGK light: DIQMTQSPSSLSASVGDTVTITCQANGYLNWYQQRRGKAPKLLIYDGSKLERGVPSRFSGRRWGQEYTLTISSLQPEDIATYFCQVYEFVTPGTRLDLKRTVAAPSVFIFPPSDEQLKSGTASVVCLLNNFYPREAKVQWKVDNALQSGNSQESVTEQDSKDSTYSLSSTLTLSKADYEKHKVYACEVTHQGLSSPVTKSFNRGEC | 1.04 | 0.98
8 | 1.33.32-1 (antibody, human IgG1, kappa) heavy: QVQLVQSGAEVKKPGASVRVSCKASGYNIRDYFIHWWRQAPGQGLQWVGWINPKTGQPNNPRQFQGRVTLTRHASWDFDTFSFYMDLKALRSDDTATYFCARQRSDYWDFDVWGSGTQVTVSSASTKGPSVFPLAPSSKSTSGGTAALGCLVKDYFPEPVTVSWNSGALTSGVHTFPAVLQSSGLYSLSSVVTVPSSSLGTQTYICNVNHKPSNTKVDKKVEPKSCDKTHTCPPCPAPELLAGPDVFLFPPKPKDTLMISRTPEVTCVVVDVSHEDPEVKFNWYVDGVEVHNAKTKPREEQYNSTYRVVSVLTVLHQDWLNGKEYKCKVSNKALPLPEEKTISKAKGQPREPQVYTLPPSREEMTKNQVSLTCLVKGFYPSDIAVEWESNGQPENNYKTTPPVLDSDGSFFLYSKLTVDKSRWQQGNVFSCSVLHEALHSHYTQKSLSLSPGK light: DIQMTQSPSSLSASVGDTVTITCQANGYLNWYQQRRGKAPKLLIYDGSKLERGVPSRFSGRRWGQEYTLTISSLQPEDIATYFCQVYEFVTPGTRLDLKRTVAAPSVFIFPPSDEQLKSGTASVVCLLNNFYPREAKVQWKVDNALQSGNSQESVTEQDSKDSTYSLSSTLTLSKADYEKHKVYACEVTHQGLSSPVTKSFNRGEC | 1.13 | 0.98
9 | 1.35.32-1 (antibody, human IgG1, kappa) heavy: QVQLVQSGAEVKKPGASVRVSCKASGYNIRDYFMHWWRQAPGQGLQWVGWINPKTGQPNNPRQFQGRVTMTRHASWDFDTFSFYMDLSRLRSDDTATYFCARQRTDYWDFDVWGQGTMVTVSSASTKGPSVFPLAPSSKSTSGGTAALGCLVKDYFPEPVTVSWNSGALTSGVHTFPAVLQSSGLYSLSSVVTVPSSSLGTQTYICNVNHKPSNTKVDKKVEPKSCDKTHTCPPCPAPELLAGPDVFLFPPKPKDTLMISRTPEVTCVVVDVSHEDPEVKFNWYVDGVEVHNAKTKPREEQYNSTYRVVSVLTVLHQDWLNGKEYKCKVSNKALPLPEEKTISKAKGQPREPQVYTLPPSREEMTKNQVSLTCLVKGFYPSDIAVEWESNGQPENNYKTTPPVLDSDGSFFLYSKLTVDKSRWQQGNVFSCSVLHEALHSHYTQKSLSLSPGK light: DIQMTQSPSSLSASVGDTVTITCQANGYLNWYQQRRGKAPKLLIYDGSKLERGVPSRFSGRRWGQEYTLTISSLQPEDIATYFCQVYEFVTPGTRLDLKRTVAAPSVFIFPPSDEQLKSGTASVVCLLNNFYPREAKVQWKVDNALQSGNSQESVTEQDSKDSTYSLSSTLTLSKADYEKHKVYACEVTHQGLSSPVTKSFNRGEC | 1.01 | 0.96
